In US20190225669A1 (ACCELERON PHARMA, published 2019):
Where two headings read alike, the source gives them in different places. Values belong to the binder of their own block, whether it stands above or below them.

Experiments:
[1] = target: T1, activin A (UniProt P08476 311-426); experiment: Biacore SPR
T1 sequence (looked up): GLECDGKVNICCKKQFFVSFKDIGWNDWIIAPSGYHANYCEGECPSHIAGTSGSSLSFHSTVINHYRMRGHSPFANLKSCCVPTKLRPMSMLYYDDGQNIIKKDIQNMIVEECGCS
Experimental: (§1) Ligands were injected and allowed to flow over the captured receptor protein.

[2] = target: T2, activin B (UniProt P09529 293-407); experiment: Biacore SPR
T2 sequence (looked up): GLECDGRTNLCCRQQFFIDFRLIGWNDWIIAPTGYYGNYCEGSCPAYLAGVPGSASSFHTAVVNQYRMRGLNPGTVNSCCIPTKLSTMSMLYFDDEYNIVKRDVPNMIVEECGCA
Experimental: as §1

[3] = target: T3, GDF11 (UniProt O95390 299-407); experiment: Biacore SPR
T3 construct: also called BMP11
T3 sequence (looked up): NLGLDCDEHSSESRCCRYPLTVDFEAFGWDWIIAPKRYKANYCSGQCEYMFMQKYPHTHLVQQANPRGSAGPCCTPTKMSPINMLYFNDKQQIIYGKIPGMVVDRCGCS
Experimental: as §1

[4] = target: T1, activin A; experiment: Biacore SPR; remark: listed apart in the source
Experimental: as §1

[5] = target: T4, activin AB (UniProt P08476 311-426; P09529 293-407); experiment: Biacore SPR
T4 sequence (looked up) 1: T1 sequence (looked up)
T4 sequence (looked up) 2: T2 sequence (looked up)
Experimental: as §1

[6] = target: T5, activin AC (UniProt P08476 311-426; P55103 237-352); experiment: Biacore SPR
T5 sequence (looked up) 1: T1 sequence (looked up)
T5 sequence (looked up) 2: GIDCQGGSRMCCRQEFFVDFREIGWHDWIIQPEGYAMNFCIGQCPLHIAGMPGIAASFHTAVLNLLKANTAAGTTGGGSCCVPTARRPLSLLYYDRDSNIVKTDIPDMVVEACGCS
Experimental: as §1

[7] = target: T6, BMP6 (UniProt P22004 382-513, limits assumed); experiment: Biacore SPR
T6 sequence (looked up): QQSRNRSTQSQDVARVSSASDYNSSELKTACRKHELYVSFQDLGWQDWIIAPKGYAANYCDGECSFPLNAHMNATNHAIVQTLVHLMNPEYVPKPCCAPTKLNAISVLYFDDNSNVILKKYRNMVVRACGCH
Experimental: as §1

[8] = target: T7, BMP7 (UniProt P18075 293-431); experiment: Biacore SPR
T7 sequence (looked up): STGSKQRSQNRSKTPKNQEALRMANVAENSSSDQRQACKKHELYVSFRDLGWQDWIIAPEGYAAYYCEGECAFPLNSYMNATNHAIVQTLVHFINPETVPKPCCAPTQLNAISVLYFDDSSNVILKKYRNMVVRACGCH
Experimental: as §1

[9] = target: T8, BMP10 (UniProt O95393 317-424); experiment: Biacore SPR
T8 sequence (looked up): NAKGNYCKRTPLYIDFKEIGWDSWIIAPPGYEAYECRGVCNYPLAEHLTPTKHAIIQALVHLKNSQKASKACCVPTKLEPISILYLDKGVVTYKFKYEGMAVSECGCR
Experimental: as §1

[10] = target: T3, GDF11; experiment: Biacore SPR; remark: listed apart in the source
Experimental: as §1

[11] = target: T1, activin A; experiment: Biacore SPR; remark: listed apart in the source
Experimental: as §1

[12] = target: T4, activin AB; experiment: Biacore SPR; remark: listed apart in the source
Experimental: as §1

[13] = target: T9, BMP9 (UniProt Q9UK05 320-429); experiment: Biacore SPR
T9 construct: also called GDF2
T9 sequence (looked up): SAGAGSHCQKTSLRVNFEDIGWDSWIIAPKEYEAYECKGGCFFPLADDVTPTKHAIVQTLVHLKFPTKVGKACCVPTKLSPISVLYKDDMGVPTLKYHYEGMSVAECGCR
Experimental: as §1

[14] = target: T10, BMP15 (UniProt O95972 268-392); experiment: Biacore SPR
T10 construct: also called GDF9b
T10 sequence (looked up): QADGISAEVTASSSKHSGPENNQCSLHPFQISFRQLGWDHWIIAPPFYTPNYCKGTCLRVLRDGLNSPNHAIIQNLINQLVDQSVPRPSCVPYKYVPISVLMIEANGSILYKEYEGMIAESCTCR
Experimental: as §1

[15] = target: T3, GDF11; experiment: Biacore SPR; † very low signal
Experimental: as §1

[16] = target: T3, GDF11; experiment: Biacore SPR; † very low signal; remark: listed apart in the source
Experimental: as §1

[17] = target: T2, activin B; experiment: Biacore SPR; remark: listed apart in the source
Experimental: as §1

[18] = target: T6, BMP6; experiment: Biacore SPR; remark: listed apart in the source
Experimental: as §1

[19] = target: T9, BMP9; experiment: Biacore SPR; remark: listed apart in the source
Experimental: as §1

[20] = target: T8, BMP10; experiment: Biacore SPR; remark: listed apart in the source
Experimental: as §1

[21] = target: T11, GDF3 (UniProt Q9NR23 251-364); experiment: Biacore SPR
T11 sequence (looked up): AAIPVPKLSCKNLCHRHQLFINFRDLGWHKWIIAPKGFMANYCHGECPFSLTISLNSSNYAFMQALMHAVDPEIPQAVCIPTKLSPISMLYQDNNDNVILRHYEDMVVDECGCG
Experimental: as §1

[22] = target: T12, GDF8 (UniProt O14793 267-375); experiment: Biacore SPR
T12 construct: also called myostatin
T12 sequence (looked up): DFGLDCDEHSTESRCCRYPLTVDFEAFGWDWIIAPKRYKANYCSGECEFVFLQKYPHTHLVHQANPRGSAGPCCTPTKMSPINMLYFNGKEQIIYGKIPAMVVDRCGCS
Experimental: as §1

[23] = target: T3, GDF11; experiment: Biacore SPR; remark: listed apart in the source
Experimental: as §1

[24] = target: T13, TGFβ1 (human, UniProt P01137 279-390); experiment: Biacore SPR
T13 construct: Human (PeproTech) is stated for the A549 reporter assay; also called TGF-beta1
Experimental: (§2) The heteromeric or homomeric protein complexes were independently captured onto the system using an anti-Fc antibody. Ligands were injected and allowed to flow over the captured receptor protein.

[25] = target: T14, TGFβ2 (human, UniProt P61812 303-414); experiment: Biacore SPR
T14 construct: Human (PeproTech) is stated for the A549 reporter assay; also called TGF-beta2
T14 sequence (looked up): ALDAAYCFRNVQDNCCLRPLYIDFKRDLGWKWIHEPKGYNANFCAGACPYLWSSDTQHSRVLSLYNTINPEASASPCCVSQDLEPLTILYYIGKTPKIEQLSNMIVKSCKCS
Experimental: as §2

[26] = target: T15, TGFβ3 (human, UniProt P10600 301-412); experiment: Biacore SPR
T15 construct: Human (PeproTech) is stated for the A549 reporter assay; also called TGF-beta3
T15 sequence (looked up): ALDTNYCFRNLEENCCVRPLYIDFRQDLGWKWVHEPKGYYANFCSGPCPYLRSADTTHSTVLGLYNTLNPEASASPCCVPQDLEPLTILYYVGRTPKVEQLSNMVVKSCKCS
Experimental: as §2

T13 sequence (P01137 279-390 limits assumed): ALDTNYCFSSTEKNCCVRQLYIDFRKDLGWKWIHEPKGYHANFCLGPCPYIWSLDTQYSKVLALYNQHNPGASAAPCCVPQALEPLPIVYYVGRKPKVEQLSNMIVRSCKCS

- Kd [1]: 20 nM
- koff [1]: 0.012 s⁻¹
- kon [1]: 580000 M⁻¹ s⁻¹
- binding result [2]: no binding
- koff [3]: 0.0048 s⁻¹
- kon [3]: 5e+06 M⁻¹ s⁻¹
- Kd [4]: 20 nM
- koff [4]: 0.012 s⁻¹
- kon [4]: 580000 M⁻¹ s⁻¹
- Kd [5]: 2 nM
- koff [5]: 0.0036 s⁻¹
- kon [5]: 1.8e+06 M⁻¹ s⁻¹
- binding result [6]: no binding
- binding result [7]: no binding
- binding result [8]: no binding
- binding result [9]: no binding
- koff [10]: 0.0048 s⁻¹
- kon [10]: 5e+06 M⁻¹ s⁻¹
- Kd [11]: 20 nM
- koff [11]: 0.012 s⁻¹
- kon [11]: 580000 M⁻¹ s⁻¹
- Kd [12]: 1.5 nM
- koff [12]: 0.0064 s⁻¹
- kon [12]: 4.4e+06 M⁻¹ s⁻¹
- binding result [13]: no binding
- binding result [14]: no binding
- Kd [15]: 0.97 nM
- Kd [16]: 0.97 nM
B1: ALK4-Fc homodimer (Fc fusion, UniProt P36896 24-126, looked up, not shown: a dimerising Fc or GST)
chain: SGPRGVQALLCACTSCLQANYTCETDGACMVSIFNLDGMEHHVRTCIPKVELVPAGKPFYCLSSEDLRNTHCCYTDYCNRIDLRVPSGHLKEPEHPSMWGPVE
notes: extracellular domain

- binding result [17]: no binding
- binding result [18]: no binding
- binding result [19]: no binding
- binding result [20]: no binding
- binding result [21]: no binding
- binding result [22]: no binding
- binding result [23]: no binding
- binding result [24]: no binding
- binding result [25]: no binding
- binding result [26]: no binding
B2: ALK5-Fc homodimer (Fc fusion, UniProt P36897 34-126, looked up, not shown: a dimerising Fc or GST)
chain: LQCFCHLCTKDNFTCVTDGLCFVSVTETTDKVIHNSMCIAEIDLIPRDRPFVCAPSSKTGSVTTTYCCNQDHCNKIELPTTVKSSPGLGPVEL
notes: extracellular domain
